B1: Hairpin Ribozyme (parent)
chain: GUCCUCUUUCACGUGCGCGUGAAAGAGAGAAGUGAACCAGAGAAACACACGUUGUGGUAUAUUACCUGGUA

Variants of: B1
Experiment: self-cleavage, relative activity (ratio to wild type); higher = more cleavage; co-transcriptional

Variant	self-cleavage
C37A A59C	0.137
C37A A59G	0.241
C37A A59U	0.0631
C37A A64G	0.187
C37A C38G	0.31
C37A C46A	0.179
C37A C46G	0.0923
C37A C48A	0.189
C37A C50A	0.124
C37A C50G	0.128
C37A C65A	0.259
C37A C65U	0.261
C37A G42A	0.124
C37A G51A	0.535
C37A G54A	0.187
C37A G54C	0.114
C37A G54U	0.269
C37A G56C	0.174
C37A G68A	0.302
C37A G69A	0.434
C37A U52A	0.484

Variant	self-cleavage
C37A U55C	0.1
C37A U60C	0.337
C37A U62G	0.127
C37A U63A	0.163
C37A U63C	0.131
C37A U67C	0.0944
C37A U70A	0.368
C37A U70C	0.438
C37G A39C	0.163
C37G A44G	0.185
C37G A44U	0.118
C37G A47G	0.15
C37G A49C	0.348
C37G A61G	0.155
C37G A64C	0.136
C37G A64U	0.192
C37G A71G	0.341
C37G C38U	0.128
C37G C48U	0.144
C37G C65G	0.225
C37G C66A	0.207

Variant	self-cleavage
C37G G40A	0.0652
C37G G42U	0.0921
C37G G51C	0.469
C37G G54C	0.149
C37G G56A	0.204
C37G G57C	0.21
C37G G68U	0.189
C37G U52G	0.377
C37G U53A	0.245
C37G U55A	0.226
C37G U55C	0.178
C37G U58G	0.136
C37G U62A	0.153
C37G U70G	0.405
C37U A39U	0.208
C37U A41U	0.969
C37U A43G	0.146
C37U A44C	0.1
C37U A45G	0.0764
C37U A47G	0.167
C37U A47U	0.177

Variant	self-cleavage
C37U A49U	0.211
C37U A59C	0.162
C37U A59G	0.152
C37U A61C	0.146
C37U A61G	0.126
C37U A61U	0.248
C37U A64C	0.205
C37U A71C	0.93
C37U A71U	0.557
C37U C38G	0.0604
C37U C38U	0.201
C37U C46A	0.121
C37U C46G	0.13
C37U C48G	0.0435
C37U G40A	0.183
C37U G40U	0.178
C37U G42U	0.27
C37U G51A	0.967
C37U G51C	0.689
C37U G56A	0.156
